Measurements as given in US20240325495A1, “FUSION PROTEINS FOR THE TREATMENT OF DISEASE” (Bristol-Myers Squibb Company, priority 2020, published 2024).
Read-outs that look alike come from different tables or passages of the source.

Columns and labels:
monkeys [1] = experiment: 2-week toxicity study in monkeys, weekly SC
[2] = Linker-cleavage in human serum in vitro (LC-MS/MS); type: in vitro ADME; settings: up to 72 hours
Procedure: (§1) Various in vitro and in vivo studies were conducted to characterize the PK of BMS-986326 in the nonclinical setting.

rats = experiment: 2-week toxicity study in rats, twice weekly SC; type: in vivo
From the text: The highest exposures were noted during the first week of each study and diminished considerably during the second week, due to ADA impact. […] Splenic capsular fibroplasia with inflammation was considered adverse at all twice weekly doses due to moderate to marked severity and was also associated with minimal to mild inflammation in the mesentery (adjacent to the stomach and pancreas), which further contributed to the adversity of the finding. […] The primary BMS-986326-related effects were mostly minimal in severity at all once weekly doses (0.25, 0.5, or 1 mg/kg) and included increased eosinophils (1.9× to 6.7×); minimal capsular fibroplasia/fibrosis of spleen without inflammation or involvement of adjacent mesentery; and pharmacologically mediated infiltration of eosinophils into a few tissues, none of which were considered adverse due to low magnitude of change and lack of evidence of any compromise in functional integrity of organs involved.

monkeys [3] = experiment: 12-week monkey toxicity study, SC Q3W
Procedure: In the 12-week monkey study, dose range and frequencies were reduced compared to the 2-week study with BMS-986326 administered at 0.0625, 0.125, or 0.25 mg/kg SC Q3W (Days 1, 22, 43, and 64).

monkeys [4] = experiment: Pivotal single-dose IV toxicity and cardiovascular safety study in monkeys; type: in vivo
From the text: The single- and repeat-dose toxicity of BMS-986326 were characterized in a series of studies in rats for up to 2 weeks and in monkeys up to 12 weeks using selected dosing frequencies. Pivotal good laboratory practice (GLP) repeat-dose studies in both species employed SC administration of BMS-986326 and consisted of two 2-week studies in rats using differing dose frequencies (once weekly [QW] vs twice weekly [2QW]), a 2-week once weekly dosing study in monkeys, and a 12-week (once every 3 week, Q3W) dosing study in monkeys. In addition, single-dose exploratory studies were initially completed in both rats and monkeys to explore the tolerability of BMS-986326, and a single-dose GLP IV toxicity and cardiovascular safety study was also completed in telemeterized monkeys using IV dosing to support IV administration in the first-in-human (FIH) single-ascending dose (SAD) study (IM034001).
Microscopically, there were dose-dependent multisystemic infiltrates of eosinophils and mononuclear cells in some tissues.

[5] = Nonclinical pharmacokinetics in mice; type: in vivo
Procedure: as §1

[6] = system: pSTAT5 in Tregs, Tconv, CD8 cells and NK cells; experiment: Whole blood pSTAT5 assay, selectivity across cell types; type: cell-based
[7] = Nonclinical pharmacokinetics in monkeys; type: in vivo
Procedure: as §1

self-blocking homodimer = experiment: Biochemical and biophysical characterization: homodimer dissociation; type: binding; settings: in vitro at 37° C.
[8] = Human PK/PD, exposure and efficacious dose projection; settings: projected peak
Procedure: Human PK was projected using allometric scaling of monkey PK parameters and was assumed to have similar SC bioavailability as in monkeys.
The first approach was based on maximal preclinical efficacy in mouse models dosed with mIL2-CD25.
The selection of the starting dose of 0.1 mg IV is based on the available preclinical PK, toxicology, and pharmacology data. PK/PD modeling and simulations were performed to generate predicted human PK and PD profiles from nonclinical data.

Treg = experiment: Phase 1 single ascending dose study, Cohort A4; type: in vivo, human; settings: Cohort A4, 3 mg single intravenous infusion, compared to placebo; preliminary
Procedure: BMS-986326 is assessed in a Phase 1, randomized, double-blind, placebo-controlled, single ascending doses (SAD) study to evaluate the safety, tolerability, pharmacokinetics (PK), and pharmacodynamics (PD) of single doses of BMS-986326 in healthy adult participants.
Blood samples are collected and measured by flow cytometry for quantitating immune cells such as Treg, Tconv, follicular helper T cells (Tfh), B cells, and NK cells by surface markers that may include, but not limited to, cell lineage and activation markers CD3, CD4, CD8, CD14, CD25, CD39, CD45, CD45RA, CD56, CD127, Foxp3, Helios, CXCR5, CCR7, and Ki67. Blood samples are also collected and measured by flow cytometry for determining BMS-986326 engagement to Treg, Tconv, CD8 T cells, and NK cells identified by pSTAT5.
Preliminary Results from BMS-986326 Cohort A4 (3 mg Single Intravenous Infusion)

monkeys [9] = settings: monkey, in vivo, sc
[10] = system: Kit225 Interferon Regulatory Factor 1 (IRF1)-driven reporter cell line; experiment: Kit225 IRF1-driven reporter cell line assay; type: cell-based
monkeys [11] = settings: monkey, in vivo

Chain of self-blocking homodimer (as listed by the source): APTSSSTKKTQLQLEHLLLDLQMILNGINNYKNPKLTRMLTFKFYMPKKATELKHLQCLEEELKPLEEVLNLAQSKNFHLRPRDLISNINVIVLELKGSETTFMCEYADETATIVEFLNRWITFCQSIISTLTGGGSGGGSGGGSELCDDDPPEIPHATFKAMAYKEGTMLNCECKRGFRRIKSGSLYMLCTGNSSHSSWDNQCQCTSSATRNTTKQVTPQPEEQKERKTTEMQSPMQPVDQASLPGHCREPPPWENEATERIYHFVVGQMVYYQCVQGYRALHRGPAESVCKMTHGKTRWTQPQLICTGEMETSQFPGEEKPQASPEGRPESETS

BMS-986326: recombinant fusion protein of human IL2 and extracellular domain of human CD25, (GGGS)3 linker, non-covalent self-blocking homodimer
mean AUC[0-168 h] at NOAEL (monkeys [1]; 0.125 mg/kg/week): 132 µg·h/mL | NOAEL (monkeys [1]; 2-week weekly SC): 0.125 mg/kg/week | clinically tolerated doses (monkeys [1]; weekly SC, 2 weeks): ≤ 0.25 mg/kg | linker-cleavage [2]: did not show signs of linker-cleavage | doses with adverse capsular fibroplasia and inflammation of the spleen (rats; rat, in vivo): ≥ 0.5 mg/kg | increases in eosinophils versus controls (rats; rat, in vivo, 0.5 mg/kg): 3-22 × | clinically tolerated doses (rats; rats, 2-week studies, all doses): ≤ 2.5 mg/kg | NOAEL (rats; rats, twice weekly dosing study): a NOAEL was not identified | mean AUC [0-336 h] at tolerated doses (rats; rats, ≤[…]): ≤ 600 µg·h/mL | NOAEL AUC[0-504 hours] (monkeys [3]; 12-week (once every 3 weeks) SC monkey toxicology study): ≤ 306 μ·h/ml | magnitude of increase in Tregs relative to increase in conventional T cells (monkeys [3]; 12-week monkey study, Q3W, across the dose range): ≤ 2 times | eosinophilic or mononuclear cell infiltration into other tissues (monkeys [3]; monkey, in vivo, sc): no eosinophilic or mononuclear cell infiltration into other tissues | NOAEL (monkeys [3]; monkeys, 12-week SC Q3W): 0.25 mg/kg/dose | mean AUC at NOAEL (monkeys [3]; monkeys, […] Q3W): 306 µg·h/mL | blood pressure, CLS-like effects, hemodynamic and electrocardiographic parameters (monkeys [4]; monkey, in vivo, iv): no decreases in blood pressure, CLS-like effects, or other effects on hemodynamic or electrocardiographic parameters | increase in eosinophils (monkeys [4]; monkey, in vivo, iv): up to 91.6 × | mean AUC [0-336 h] across all doses (monkeys [4]; monkey, in vivo, iv): ≤ 757 µg·h/mL | increased heart rate relative to baseline (monkeys [4]; monkey, in vivo, iv, 0.5 mg/kg): 4% | transient increase in mean body temperature (monkeys [4]; monkey, in vivo, iv, 0.5 mg/kg): up to 1.1 °C | clinical tolerability (monkeys [4]; monkeys, single IV 0.05, 0.15 or 0.5 mg/kg): clinically well tolerated at all doses | no-observed-adverse-effect level (NOAEL) (monkeys [4]; monkeys, single IV dose): 0.5 mg/kg | NOAEL AUC[0-336 hours] (monkeys [4]; single-dose monkey toxicology study): ≤ 757 μ·h/ml | total serum clearance (CLTs) [5]: 3.25 mL/h/kg | steady-state volume of distribution (Vss) ([5]; IV): 0.0954 L/kg | absolute bioavailability ([5]; SC dosing): 58% | apparent elimination half-life (T-HALF) ([5]; SC dosing): 1.18 days | time of maximum concentration (Tmax) ([5]; SC dosing): 7 h | % of Tregs pSTAT5+ ([6]; highest concentration of drug): > 90% | % pSTAT5+ cells in Tconv, CD8 cells and NK cells ([6]; highest concentration of drug at 71 nM): < 50% | total serum clearance (CLTs) [7]: 0.769 mL/h/kg | steady-state volume of distribution (Vss) ([7]; IV): 0.0734 L/kg | absolute bioavailability ([7]; SC dosing): 46% | apparent elimination half-life (T-HALF) ([7]; SC dosing): 3.30 days | time of maximum concentration (Tmax) ([7]; SC dosing): 24 h | dissociation half-life of self-blocking homodimer (self-blocking homodimer): approximately 3 days | Fold-change CD8+ ([8]; 0.1 mg IV): <2 fold | Fold-change Tregs ([8]; 0.1 mg IV): <2 fold | Fold-change CD8+ ([8]; 0.3 mg IV): <2 fold | Fold-change Tregs ([8]; 0.3 mg IV): <2 fold | Fold-change CD8+ ([8]; 1 mg IV): <2 fold | Fold-change Tregs ([8]; 1 mg IV): 2-4 fold | Fold-change CD8+ ([8]; 1 mg SC): <2 fold | Fold-change Tregs ([8]; 1 mg SC): 2-3 fold | Fold-change CD8+ ([8]; 3 mg IV): <2 fold | Fold-change Tregs ([8]; 3 mg IV): 4-8 fold | Fold-change CD8+ ([8]; 3 mg SC): <2 fold | Fold-change Tregs ([8]; 3 mg SC): 3-5 fold | Fold-change CD8+ ([8]; 6 mg IV): ~2 fold | Fold-change Tregs ([8]; 6 mg IV): 7-15 fold | Fold-change CD8+ ([8]; 6 mg SC): <2 fold | Fold-change Tregs ([8]; 6 mg SC): 4-8 fold | Fold-change CD8+ ([8]; 8 mg SC): ~2 fold | Fold-change Tregs ([8]; 8 mg SC): 5-10 fold | Fold-change CD8+ ([8]; 9 mg IV (optional Cohort A6)): ~2 fold | Fold-change Tregs ([8]; 9 mg IV (optional Cohort A6)): 10-20 fold | Treg versus baseline levels (Treg): increased from baseline levels | AUC (monkeys [9]; 0.075 mg/kg): approximately 48 μg·h/mL | AUC (monkeys [9]; 0.75 mg/kg): ~407 µg·h/mL | AUC[INF] (monkeys [9]; 0.75 mg/kg): 407 µg·h/mL | decrease of in vitro potency compared to recombinant IL-2 [10]: > 100 fold | EC50 ([10]; Kit225 IRF1-driven reporter cell line, read-out: average half-maximal effective concentration (EC50)): 3.4 nM | decreased platelets (monkeys [11]): 0.9-0.6 | decreased red cell mass versus pretest (monkeys [11]): 0.9-0.6 | doses with adverse inflammation in eye choroid and choroid plexus of brain (monkeys [11]): ≥ 0.25 mg/kg/week | increased liver weights (monkeys [11]): 16-75% | number of tissues affected by mixed cell inflammation (monkeys [11]): 16-28 | clinical signs (monkeys [11]; 0.75 mg/kg): adverse clinical signs of toxicity | increased heart rate (monkeys [11]; 0.75 mg/kg): 25-28% | mean AUC[0-168 h] (monkeys [11]; 0.75 mg/kg): ≥ 601 µg·h/mL
